Results taken from patent publication US20220160939A1, “SELF-ASSEMBLING PEPTIDES AS BRONCHIAL OBSTRUCTION AGENTS” (3-D MATRIX, LTD., priority 2014, published 2022).
Where no end group is shown, it is not given here.

Columns and labels:
Type in all cases: physicochemical
[1] = Salt ionic strength plus pH adjustment: appearance and rheological properties; conditions: for appearance of peptide solutions: 0.9% NaCl (ionic strength: 0.15 M) at pH 3.4 adjusted with NaOH
Description: In accordance with one or more embodiments, IEIK13 (SEQ ID NO:2), KLD12 (SEQ ID NO:3), and PuraMatrix® (SEQ ID NO:1) may be dissolved both in salt buffer such as NaCl and at an elevated pH level adjusted with alkali salt buffer such as NaOH to keep their salt ionic strength under their critical salt points as well as their pH level to about 2.5˜4.0, so that they may have stiffer properties. With respect to PuraMatrix® (SEQ ID NO:1), […] and IEIK13 (SEQ ID NO:2), the peptide solutions are still clear with 0.9% NaCl (ionic strength: 0.15 M) at pH 3.4 adjusted with NaOH. The rheological property of PuraMatrix® (SEQ ID NO:1) with 0.9% NaCl (ionic strength: 0.15 M) at pH 3.4 was stiffer than those of PuraMatrix® (SEQ ID NO:1) control and PuraMatrix® (SEQ ID NO:1) with only NaCl 0.9%. The effect of salt ionic strength and pH adjustment on the rheological properties of PuraMatrix® (SEQ ID NO:1) 2.5% solution are shown in FIG. 20. Frequency sweep tests were performed from 1 rad/sec to 10 rad/sec at 1 Pa and the storage modulus at 1 rad/sec was selected for data.

[2] = Gelation of peptide solutions after saline buffer treatment, time sweep test; conditions: saline buffer (0.15 M of NaCl), no pH change; IEIK13 1.5%, KLD12 1.5%, PuraMatrix 2.5%
Procedure: The effect of salt ionic strength level surrounding peptides in solution on the properties of peptide solutions was evaluated to identify the possibility of peptide gelation when the peptide solution is placed into the environment where salt ionic strength level is high. […] Without pH effect, the effect of saline treatment on gelation of peptide solutions were evaluated. […] This is because IEIK13 (SEQ ID NO:2) is much more sensitive to salt ionic strength levels. Fast gelation of IEIK13 (SEQ ID NO:2) at the salt ionic strength level similar to body fluid isotonic salt level may generally improve its function and gelation speed for various clinical applications. The results are shown in FIG. 19 for IEIK13 (SEQ ID NO:2), KLD12 (SEQ ID NO:3) and PuraMatrix® (SEQ ID NO:1) solutions. Time sweep tests were performed at 1 rad/sec and at 1 Pa with 20 mm plates and 500 μm gap distance. […]

[3] = Rheological properties of peptide solutions at adjusted salt ionic strength; conditions: for ionic strength up to which the rheological property of 1% solutions increases (decreases above): storage modulus at 1 rad/sec; for rheological property after adjusting ionic strength level with NaCl: NaCl to 0.7 M (PuraMatrix), 0.2 M (KLD12) or 0.02 M (IEIK13); for ionic strength up to which the rheological property of 1% solutions increases (decreases above) / rheological property after adjusting ionic strength level with NaCl: 1% solutions
Procedure: Based on the visual observation of the effect of salt ionic strength on the properties of the peptide solutions, the effect on the rheological properties of the peptide solutions after adjusting their ionic strength level with NaCl to 0.7 M (PuraMatrix® (SEQ ID NO:1)), 0.2 M (KLD12 (SEQ ID NO:3)) or 0.02 M (IEIK13 (SEQ ID NO:2)), which is closely below the critical ionic strength at which each peptide becomes cloudy, was evaluated. If the ionic strength levels with NaCl of peptide solutions are higher than 0.9 M (PuraMatrix® (SEQ ID NO:1)), 0.3 M (KLD12 (SEQ ID NO:3)) or 0.03 M (IEIK13 (SEQ ID NO:2)), the peptide solutions begin phase separation becoming cloudy and weak. The rheological property of PuraMatrix® (SEQ ID NO:1), KLD12 (SEQ ID NO:3) and IEIK13 (SEQ ID NO:2) solutions was higher after adjusting their ionic strength level with NaCl to 0.7 M (PuraMatrix® (SEQ ID NO:1)), 0.2 M (KLD12 (SEQ ID NO:3)) or 0.02 M (IEIK13 (SEQ ID NO:2)). The results are shown in FIG. 10 for KLD12 (SEQ ID NO:3) 1%, FIG. 11 for IEIK13 (SEQ ID NO:2) 1%, and FIG. 12 for PuraMatrix® (SEQ ID NO:1) 1%, respectively. Frequency sweep tests were performed from 1 rad/s to 10 rad/s at 1 Pa.
Based on the results of the effect on the rheological properties of the peptide solutions after adjusting their ionic strength level with NaCl to 0.7 M (PuraMatrix® (SEQ ID NO:1)), 0.2 M (KLD12 (SEQ ID NO:3)) or 0.02 M (IEIK13 (SEQ ID NO:2)), the effect on the rheological properties of the peptide solution at various salt ionic strengths was evaluated. […] The results are shown in FIG. 13 for PuraMatrix® (SEQ ID NO:1) 1% solutions and in FIG. 14 for IEIK13 (SEQ ID NO:2) 1% solutions. Frequency sweep tests were performed from 1 rad/sec to 10 rad/sec at 1 Pa and the storage modulus at 1 rad/sec was selected for data.
Based on the results of the effect on the rheological properties of the peptide solutions and hydrogels after adjusting their ionic strength levels with NaCl, the effect of various salts (KCl, MgCl2, and CaCl2) was also evaluated. The rheological property of PuraMatrix® (SEQ ID NO:1) solutions increases with ionic strength adjustment at 0.15 M of all the salts. Increases of the rheological property of PuraMatrix® (SEQ ID NO:1) solutions with various salts were not predominantly different. However, increases of the rheological property of PuraMatrix® (SEQ ID NO:1) solutions may vary depending on the salting out constant, K of each salt. Constant K is a constant in Cohen's equation: log S=B−KI, where S is solubility, B is idealized solubility, K is salting out constant, and I is ionic strength. With a higher value of constant K and ionic strength of salts, solubility of the peptide may decrease resulting in strong peptide self-assembly with increased hydrophobic effect and higher rheological properties of the peptide solution. The constant K of NaCl may be higher than the other salts. […] The results are shown in FIG. 17 for PuraMatrix® (SEQ ID NO:1) 1% solution before DMEM treatment, and in FIG. 18 for PuraMatrix® (SEQ ID NO:1) 1% hydrogels after DMEM treatment for 10 min Frequency sweep tests were performed from 1 rad/sec to 10 rad/sec at 1 Pa and the storage modulus at 1 rad/sec was selected for data.

Substance	appearance of peptide solutions [1]	rheological property versus control and versus only NaCl 0.9% ([1]; 2.5% solution, 0.9% NaCl (ionic strength: 0.15 M) at pH 3.4)	gelation after saline buffer treatment [2]	rheological property of solutions with ionic strength adjustment ([3]; 0.15 M ionic strength of all the salts (NaCl, KCl, MgCl2, CaCl2), 1% solution)	rheological property of solutions with NaCl versus KCl and CaCl2 ([3]; 0.15 M ionic strength, 1% solution)	ionic strength up to which the rheological property of 1% solutions increases (decreases above) [3]	ionic strength level with NaCl above which solutions begin phase separation becoming cloudy and weak [3]	rheological property after adjusting ionic strength level with NaCl [3]
Arg-Ala-Asp-Ala-Arg-Ala-Asp-Ala-Arg-Ala-Asp-Ala-Arg-Ala-Asp-Ala [PuraMatrix ®]	still clear	stiffer	no or negligible gelation	increases	slightly higher	up to 0.7 M	higher than 0.9 M	higher
Ile-Glu-Ile-Lys-Ile-Glu-Ile-Lys-Ile-Glu-Ile-Lys-Ile [IEIK13]	still clear		fast gelation			up to 0.03 M	> 0.03 M	higher
KLDLKLDLKLDL [KLD12]	still clear		no or negligible gelation				> 0.3 M	higher
